Reference: paper PMC2189283

How the values were obtained:
[1] = target: LFA-3 surface glycoprotein on the human B-lymphoblastoid line JY (human (endogenous in JY)) (UniProt P19256); assay: flow cytometry on cells
[2] = target: CD2 ligand on sheep erythrocytes (T11TS, the sheep homologue of LFA-3) (sheep (endogenous in sheep erythrocytes))

UniProt P19256, sequence (P19256 29-250): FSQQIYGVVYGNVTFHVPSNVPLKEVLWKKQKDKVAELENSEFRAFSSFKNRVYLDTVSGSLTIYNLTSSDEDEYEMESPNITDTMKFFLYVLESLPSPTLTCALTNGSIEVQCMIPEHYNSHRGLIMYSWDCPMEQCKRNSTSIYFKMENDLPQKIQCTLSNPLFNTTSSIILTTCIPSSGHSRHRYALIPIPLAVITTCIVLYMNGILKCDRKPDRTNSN

“T11ex2, recombinant soluble CD2 (T11) molecule that corresponds to the two extracellular segment exons (domain or fragment)” gave a percent reduction of specific anti-LFA-3 reactivity at 10 uM T11ex2 [1] of 85% and a half-maximal inhibition of sheep erythrocyte-Jurkat T cell rosettes [2] of 0.63 to 1.25 µM.
